Source: patent US20230151072A1 (XILIO DEVELOPMENT, published 2023)

Biological target: T1, CD122-Fc (UniProt P14784 27-240, limits assumed)
T1 construct: Analyte flowed over the chip in SPR at 500, 250, 125, 62.5 and 31.25 nM; also called Fc-CD122; IL-2Rbeta
T1 sequence (looked up): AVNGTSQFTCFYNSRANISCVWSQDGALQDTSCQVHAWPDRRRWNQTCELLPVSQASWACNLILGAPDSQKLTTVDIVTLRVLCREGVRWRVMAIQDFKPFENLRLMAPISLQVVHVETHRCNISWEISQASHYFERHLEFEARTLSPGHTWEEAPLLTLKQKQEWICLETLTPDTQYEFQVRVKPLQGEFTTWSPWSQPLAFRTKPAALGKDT
Assay: SPR, protease-cleaved construct amine-coupled on chip, CD122-Fc flowed
Method: For SPR studies testing binding of masked and non-masked IL-2 polypeptide constructs, Reichert Carboxymethyl Dextran Hydrogel Surface Sensor Chips were coated and immobilized with the construct of interest (e.g., a masked IL-2 polypeptide construct or non-masked IL-2 polypeptide construct) at 30 ug/ml in 10 mM Sodium Acetate, pH 5.0 via amine coupling with EDC and NHS. […] Using a Reichert 4Channel SPR, dilutions of CD25 or CD122 were flowed over the clips with the immobilized construct to determine the on rate at 25 degrees C. At equilibrium (approximately 3 minutes), the flow buffer was changed to PBST, to determine the off rates over 6 minutes. Between each run the chip was regenerated with 10 mM glycine, pH 2.0.
For some structures, when applicable, the KD was determined for the construct with or without having been previously cleaved by a protease.

B1: AK168 after protease cleavage (ligand)
chain: LYHPSGPAPTSSSTKKTQLQLEHLLLDLQMILNGINNYKNPKLTAMLTAKFAMPKKATELKHLQCLEEALKPLEEVLNLAQSKNFHLRPRDLISNINVIVLELKGSETTFMCEYADETATIVEFLNRWITFAQSIISTLT
notes: also called AK168 Cleavage Product
Kd: 175 nM
